Assay results as given in the supplement of paper PMC10567573.

B1: CCDC6 (parent)
chain: FTPPTSLTRAGMSYYNSPGLHVQH

Variants of: B1
Experiment: protein stability index of a GFP-peptide fusion (GPS, HEK-293T) (PSI 1-6); higher = more stable
Details: c terminus: a fixed tail appended
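Further: lentivirally expressed fusions sorted by FACS into six bins by GFP to DsRed ratio, PSI derived from sequencing read proportions per bin multiplied by bin number.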

| Variant | protein stability index |
| --- | --- |
| H21I | 1.61 |
| H21G | 2.2 |
| H21L | 1.81 |
| H21M | 1.6 |
| H21A | 2.11 |
| H21K | 1.68 |
| H21D | 1.47 |
| H21S | 2.13 |
| H21R | 1.75 |
| H21T | 1.91 |
| H21Y | 1.25 |
| A10Q | 2 |
| A10H | 2.09 |
| A10T | 1.68 |
| A10L | 1.2 |
| A10N | 2.23 |
| A10V | 1.98 |
| A10E | 2.15 |
| A10W | 3.03 |
| A10K | 2.01 |
| Y15Q | 2.45 |
| Y15N | 2.23 |
| Y15C | 1.99 |
| Y15E | 2.35 |

| Variant | protein stability index |
| --- | --- |
| Y15I | 2.18 |
| Y15D | 2.58 |
| Y15A | 2.24 |
| Y15V | 2.89 |
| Y15G | 2.37 |
| Y15P | 2.57 |
| Y15F | 2.5 |
| Y15W | 3.27 |
| Y15S | 2.21 |
| Y15M | 1.92 |
| Y14G | 2.31 |
| Y14M | 1.7 |
| Y14L | 1.44 |
| Y14C | 1.93 |
| Y14Q | 2.65 |
| Y14F | 1.94 |
| Y14V | 1.32 |
| Y14E | 2.73 |
| Y14A | 2.09 |
| Y14D | 3.09 |
| Y14P | 1.88 |
| Y14K | 2.66 |
| S17L | 1.78 |
| S17W | 2.48 |

| Variant | protein stability index |
| --- | --- |
| S17G | 2 |
| S17R | 1.76 |
| S17N | 1.24 |
| S17C | 1.24 |
| S17Y | 1.68 |
| S17H | 1.83 |
| S17I | 1.7 |
| S17F | 2.95 |
| S17E | 1.93 |
| S17M | 1.32 |
| N16M | 1.89 |
| N16I | 1.98 |
| N16Q | 1.94 |
| N16F | 1.33 |
| N16G | 1.53 |
| N16L | 2.09 |
| N16D | 2.33 |
| N16P | 1.89 |
| N16E | 1.62 |
| N16R | 1.42 |
| N16S | 1.65 |
| N16V | 2.32 |
| N16T | 2.17 |
| L20S | 1.84 |

| Variant | protein stability index |
| --- | --- |
| L20M | 1.8 |
| L20R | 2.62 |
| L20N | 2.4 |
| L20D | 2.02 |
| L20F | 1.72 |
| L20Y | 1.51 |
| L20E | 2.27 |
| L20G | 2.93 |
| L20C | 1.68 |
| L20H | 1.72 |
| L20K | 2.25 |
| R9K | 1.71 |
| R9H | 1.27 |
| R9L | 2.82 |
| R9S | 1.79 |
| R9Y | 3.32 |
| R9N | 1.65 |
| R9F | 2.94 |
| R9I | 1.45 |
| T5A | 2 |
| T5M | 2.42 |
| T5D | 1.89 |
| T5H | 1.72 |
| T5V | 2.01 |

| Variant | protein stability index |
| --- | --- |
| T5K | 1.54 |
| T5I | 1.84 |
| T5Q | 1.53 |
| T5C | 1.74 |
| T5N | 1.81 |
| T5E | 2.29 |
| T5P | 1.68 |
| T5L | 2.29 |
| T5Y | 1.01 |
| T5G | 2.07 |
| P3G | 2.07 |
| P3D | 2.1 |
| P3K | 2.78 |
| P3E | 2.16 |
| P3R | 2.14 |
| P3M | 1.87 |
| P3I | 1.63 |
| P3N | 2.02 |
| P3Q | 2.32 |
| P3Y | 1.93 |
| P3C | 2 |
| P3A | 1.73 |
| T2Y | 1.69 |
| T2S | 1.5 |

| Variant | protein stability index |
| --- | --- |
| T2P | 2.26 |
| T2D | 2.1 |
| T2H | 1.85 |
| T2V | 1.96 |
| T2M | 2.6 |
| T2A | 1.84 |
| T2C | 1.91 |
| T2K | 1.79 |
| T2E | 2.83 |
| T2W | 2.67 |
| T2L | 1.87 |
| G19Q | 2.87 |
| G19V | 3.1 |
| G19R | 2.13 |
| G19I | 1.56 |
| G19Y | 1.96 |
| G19L | 1.66 |
| G19T | 1.86 |
| P18F | 1.25 |
| P18R | 1.95 |
| P18Q | 2.16 |
| P18H | 1.38 |
| P18D | 1.5 |
| P18G | 2.05 |

| Variant | protein stability index |
| --- | --- |
| P18I | 2.06 |
| P18K | 2.43 |
| P18E | 2.52 |
| P18N | 1.78 |
| H24F | 2.77 |
| H24T | 1.85 |
| H24C | 1.66 |
| H24N | 1.15 |
| H24Y | 1.19 |
| H24E | 1.84 |
| H24G | 1.77 |
| H24D | 1.82 |
| H24I | 3.53 |
| H24K | 2.7 |
| H24V | 1.67 |
| H24L | 1.63 |
| H24Q | 1.86 |
| V22W | 1.22 |
| V22C | 1.51 |
| V22D | 1.86 |
| V22M | 1.64 |
| V22N | 1.98 |
| V22K | 2.25 |
